Laboratory results: patent US9365899

Target: yeast Fab1/PIKfyve kinase (yeast) (UniProt P34756)
Experiment: cell-based or functional assay

UniProt P34756, sequence (P34756 2-2278 limits assumed): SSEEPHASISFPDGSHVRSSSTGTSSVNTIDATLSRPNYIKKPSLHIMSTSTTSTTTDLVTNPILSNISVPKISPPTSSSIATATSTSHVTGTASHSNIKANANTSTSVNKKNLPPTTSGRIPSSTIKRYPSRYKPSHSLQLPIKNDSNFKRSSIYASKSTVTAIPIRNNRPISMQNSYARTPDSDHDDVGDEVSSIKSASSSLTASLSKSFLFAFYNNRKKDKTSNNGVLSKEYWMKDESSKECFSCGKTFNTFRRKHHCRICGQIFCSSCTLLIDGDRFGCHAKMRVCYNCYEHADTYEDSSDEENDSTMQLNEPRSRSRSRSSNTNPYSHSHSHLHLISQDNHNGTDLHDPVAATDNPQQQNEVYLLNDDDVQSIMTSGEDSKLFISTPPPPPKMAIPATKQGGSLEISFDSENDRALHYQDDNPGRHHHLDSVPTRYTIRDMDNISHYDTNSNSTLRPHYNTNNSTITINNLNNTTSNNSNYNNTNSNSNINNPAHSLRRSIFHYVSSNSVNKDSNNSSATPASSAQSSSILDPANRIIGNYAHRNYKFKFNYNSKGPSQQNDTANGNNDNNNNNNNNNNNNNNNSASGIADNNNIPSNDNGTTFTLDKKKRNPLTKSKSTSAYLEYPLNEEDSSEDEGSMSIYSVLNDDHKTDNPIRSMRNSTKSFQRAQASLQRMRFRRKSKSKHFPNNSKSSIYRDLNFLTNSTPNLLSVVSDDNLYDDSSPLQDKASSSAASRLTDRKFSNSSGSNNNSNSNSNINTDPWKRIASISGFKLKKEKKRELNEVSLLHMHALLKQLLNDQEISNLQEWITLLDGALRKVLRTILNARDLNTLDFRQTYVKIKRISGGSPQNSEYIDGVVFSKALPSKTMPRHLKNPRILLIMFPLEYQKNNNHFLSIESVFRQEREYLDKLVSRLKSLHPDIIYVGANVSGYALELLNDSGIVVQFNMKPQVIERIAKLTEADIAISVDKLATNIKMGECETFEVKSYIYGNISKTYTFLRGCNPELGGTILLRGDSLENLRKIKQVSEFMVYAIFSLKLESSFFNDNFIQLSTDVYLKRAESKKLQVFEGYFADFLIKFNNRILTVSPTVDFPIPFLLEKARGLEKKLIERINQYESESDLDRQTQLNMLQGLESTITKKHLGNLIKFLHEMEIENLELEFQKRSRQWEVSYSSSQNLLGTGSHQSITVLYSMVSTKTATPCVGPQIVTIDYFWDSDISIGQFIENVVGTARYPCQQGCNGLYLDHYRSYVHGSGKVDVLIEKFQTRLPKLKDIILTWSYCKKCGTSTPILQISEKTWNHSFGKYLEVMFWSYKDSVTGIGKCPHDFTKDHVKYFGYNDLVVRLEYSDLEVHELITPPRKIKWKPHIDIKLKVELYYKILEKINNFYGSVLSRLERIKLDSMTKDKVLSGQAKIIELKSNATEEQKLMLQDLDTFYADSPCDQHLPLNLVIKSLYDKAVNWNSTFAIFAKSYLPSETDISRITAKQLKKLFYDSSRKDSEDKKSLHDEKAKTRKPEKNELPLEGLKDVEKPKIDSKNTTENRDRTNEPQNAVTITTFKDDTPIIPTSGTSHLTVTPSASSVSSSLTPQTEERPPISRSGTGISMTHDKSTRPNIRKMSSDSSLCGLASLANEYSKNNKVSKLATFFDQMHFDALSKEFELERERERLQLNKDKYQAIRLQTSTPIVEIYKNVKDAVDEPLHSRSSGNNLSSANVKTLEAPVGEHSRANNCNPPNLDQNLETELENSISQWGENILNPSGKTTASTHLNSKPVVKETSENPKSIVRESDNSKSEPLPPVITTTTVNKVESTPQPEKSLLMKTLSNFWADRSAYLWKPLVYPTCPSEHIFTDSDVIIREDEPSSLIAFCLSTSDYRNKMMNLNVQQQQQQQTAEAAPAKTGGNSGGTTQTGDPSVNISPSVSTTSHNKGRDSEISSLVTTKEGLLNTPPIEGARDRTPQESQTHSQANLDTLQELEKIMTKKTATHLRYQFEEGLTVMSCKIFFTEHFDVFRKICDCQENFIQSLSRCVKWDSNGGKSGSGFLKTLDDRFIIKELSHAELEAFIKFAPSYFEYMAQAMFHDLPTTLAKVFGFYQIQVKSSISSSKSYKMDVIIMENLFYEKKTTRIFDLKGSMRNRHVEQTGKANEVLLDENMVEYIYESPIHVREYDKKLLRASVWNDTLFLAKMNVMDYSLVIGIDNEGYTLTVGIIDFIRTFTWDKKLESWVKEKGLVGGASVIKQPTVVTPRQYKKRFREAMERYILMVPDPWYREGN

Row | increase in intracellular PI(3,5)P2 concentration after hyperosmotic shock | Substance
1 | 10 fold | yeast FIG4 protein, wildtype (from UniProt P42837 1-879)
2 | 4 fold | yeast FIG4 protein with the Ile>Thr mutation corresponding to human I41T (from UniProt P42837 1-879) (enzyme)
